From the nanobody polyreactivity screen of Harvey et al. (2022)

Assay: yeast display, Sf9 membrane polyspecificity reagent, FACS + sequencing; frameworks hold sequencing errors
Outline: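 Nanobodies from a synthetic yeast display library (Saccharomyces cerevisiae BJ5465), induced 36–48 hours with galactose, were stained 1 hour at 4 °C with 10% biotinylated, detergent-solubilized Sf9 membrane reagent, enriched on streptavidin microbeads, then FACS-sorted. Anti-HA (expression) and streptavidin (reagent binding) fluorescence set low and high (top ~1%) gates. Polyreactivity labels come from the gate of origin. Genes were colony-PCR amplified, MiSeq 2 × 250 sequenced and filtered by CDR length.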

Sequence	polyreactivity (PSR sort gate)
QVQLVESGGGLVNAGVSLLLSCAASGYIFVQYAMGWNRQAHVKERELVAAISKSGSSTYYADSVKGRFTISRDNAKNTVFLLINSLKPADSAVYYCAVVYTYVSGFTYGYWGQGTQVIVSS	low polyreactivity
QVQLVESGGGLVPAGASLRLSCAASGSTSYVYAMGWYRKAPGKERELVAAISGSGGRTYYADSVKGRFTISRDNAKNTVYLQMNSLKPEDTAVYYCNAMPRPSYPFDYWGQGTQVTVSS	high polyreactivity
QVQLVESGGGLVPAGGSLRLSCAASGFIFSRYDMGCYRQAPGKERELVAAIDWSGDSTYYADSVKGRFTISRDNAKNTVYFQMNSLKPEDTAVYYCAAGQDGDSDWGQGTQVTVSS	low polyreactivity
QVQLVESGGGLVPAGGSLRLSCAASGRIFVVYSMGWYRQAPGKERELVASISGGSTNYADSVKGRFTISRDNAKNTVYLQMNSLKPEDTAVYFCGMEYWGQGTQVTVSS	low polyreactivity
QVQLVESGGGLVPAGGSLRLSCAASGRTFFKNAMGWYRQAPGKERELVARISWNGGDSTYYADSVKGRFTISRDNAKNTVYLQMNSLKPEDTAVYSCAADTSYRPGGSRHGYGYWGQGTQVTVSS	low polyreactivity
QVQLVESGGGLVPAGGSLRLSCAASGRTFRYYGMGWYRQAPGTERELLAAISWRGGSTNYADSVKGRFTISRDNAKNTVYLQMNSLKREDTAVYYCAVGTVYLTYRGYEYWGQGTQVTVSS	high polyreactivity
QVQLVESGGGLVPAGGSLRLSCAASGRTFYSYGMGWYRQAPGKERELVASISSSTGSTYYADSVKGRFTISRDNAKNTVYLQMNSLKPEDTAVYYCAKRYSWTRRYDYWGQGTQVTVSS	high polyreactivity
QVQLVESGGGLVPAGGSLRLSCAASGRTVRRNAMGWYRHAPGKERELVADISNGDSTKYADSVKGRFTISRDNAKNTVYLQMNSVNPEDTAVYYCATEVSWHWYQQSVTRMDYWGQGTQVTVSS	low polyreactivity
QVQLVESGGGLVPAGGSLRLSCAASGSIFPVYAMGWYRQAPGKERELVASISTGGSTYYADSVKGRFTISRDNAKNTVYLQMNSLKPEDNAVYYCDATGWAYGYGYWGQGTQVTVSS	low polyreactivity
QVQLVESGGGLVPAGGSLRLSCAASGSTFAKYAMGWYRQAPGKERELVASIRLSGGSTYYADSVKGRFTISRDHAQNTVYLQMNSLKPEDTAVYYCNKQFATFYYGFHYYYWGQGTQVTVSS	low polyreactivity
QVQLVESGGGLVPAGGSLRLSCAASGSTFEVNAMGWYRQAPGKERELVADITSGGSTNYADSVKGRFTISRDNAKNTVFLQMNSLKPEDTAVYFCARDDWFGFIRVQEMDYWGQGTQVTVSS	low polyreactivity
QVQLVESGGGLVPAGGSLRLSCAASGSTFNGYPMGWYRQAPGKEREFVATITFSDGSTYYADSVKGRFTISRDNAKNTVYLQMNSLKPEDTAVYYCNVDSRIGYDYWGQGTQVTVSS	low polyreactivity
QVQLVESGGGLVPAGGSLRLSCAASGSTFSDYAMGWYRQAPGKERELVASIDSGDSTNYADSVKGRFTISRDNAKNTVYLQMTSLKPEDTAVYFCAADYQNTGARYGYYYWGQGTQVTVSS	low polyreactivity
QVQLVESGGGLVPAGGSLRLSCAASGSTFVSKAMGWYRQAPGKERELLAAISTSGGSTYNADSVKGRVTISGDNAKNTVYLQMNSLKPEDTAVYYCAKLLAGGFRIWQDYDYWGQGTQVTVSS	low polyreactivity
QVQLVESGGGLVPAGGSLRLSCDASGRTFWFYAMGWYRQAQGKERELVASITSGGGTNYADSVKGRFTISRDNAKNTVYLQMNSLKPEDTAVYYCAADRAYGVLGNEGGYWGQGTQVTVSS	high polyreactivity
QVQLVESGGGLVPAGGSLRLSWAASGFIFGYNVMGWYRQAPGKVRELVAAISRGGSTNYADSVKGRFTISRDNAKKTVSGQMTSLKPEATAVYDCAARRYRPAAFDSWGQGTQVTVSS	high polyreactivity
QVQLVESGGGLVPAGGSLRLTCAASGSTFGDYAMGWYRQAPGKERELVAAINFSDGSTYYADSVKGRFTISRDNAKNTVYLQMNSLKPEDTAVYYCAAYTYYDGVYGFDYWGQGTQVTVSS	low polyreactivity
QVQLVESGGGLVQAAGSLRLICAASGSIFTRYTMGWYRQAPGKERELVAVISDSSGRTYYADSVKGRFTISRDNAKNTVYLQMNSLKPEDTAVYYCAAEYSDIYEYWGQGTQVTVSS	low polyreactivity
QVQLVESGGGLVQAAGSLRLSCAASGGTFGWYAKGWYRLAHGKEREFLPAIRYSDGNTYYADSVKRRFTISRDNAKNSVYLQMNSLKPEDSAVYYCAADYVYAYIDGEVAEFYYWGPGTQVTVSS	high polyreactivity
QVQLVESGGGLVQAAGSLRLSCAASGITFSRNGMGWYRQAPGKERELFAAISTSGDSTDYADSVKGRFTISRDNAKNTVYLQMNSLKPEDTAVYYCNRDFSLVVHYKFDYWGQGTQVTVSS	low polyreactivity
QVQLVESGGGLVQAAGSLRLSCAASGSIFGAYAMGWYRQAPGKERELVAAINYGGATTYYADSVKGRFTISRDNAKNTVYLQMNSLKPEDTAVYYCAADYLYAYGDVAVVYGWYAYYYWGQGTQVTVSS	low polyreactivity
